The nanobody polyreactivity screen of Harvey et al. (2022)

Assay: yeast display, Sf9 membrane polyspecificity reagent, FACS + sequencing; frameworks hold sequencing errors
How it was run: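 Synthetic nanobody libraries on Saccharomyces cerevisiae BJ5465 were galactose-induced for 36–48 hours, stained 1 hour at 4 °C with 10% biotinylated, detergent-solubilized Sf9 membrane reagent and enriched on streptavidin microbeads. FACS then separated cells into low and high (top ~1%) gates by anti-HA (expression) and streptavidin (reagent binding) fluorescence. Genes were colony-PCR amplified, MiSeq 2 × 250 sequenced and CDR-length filtered. A clone's polyreactivity label is that of its gate of origin.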

QVQLVESGGGLVQAGGSLRLSCAASGSIFSSYAMGWYRQAPGKERELVAAISSSGDSTYADSVKGRFTISRDNAKNTVYLQMISLKPEDTAGYYCAVGGAGSDDYWGQGTQVTVSS
polyreactivity (PSR sort gate): low polyreactivity

QVQLVESGGGLVQAGGSLRLSCAASGSIFSSYAMGWYRQAPGKERELVAAITSGGSTYYADSVKGRFTISRDNAKNNVYLQMNSLKPEDTAVYYCAARQVRTSKLHMGYWGQGTQVTVSS
polyreactivity (PSR sort gate): low polyreactivity

QVQLVESGGGLVQAGGSLRLSCAASGSIFSSYAMGWYRQAPGKERELVASISRRGGSTYYADSVKGRFTISRDKAKNTVYLQMNSLKPEDTAVYYCTASGGPYRYYYWGQGTQVTVSS
polyreactivity (PSR sort gate): low polyreactivity

QVQLVESGGGLVQAGGSLRLSCAASGSIFSSYAMVWYRQAPGKERELVAAIDGSGGSTYADSVKGRFTISRDHAKNTVYLQMNSLKPEDTAVYYCAADSYSGRYYWWEYDYWGQGTQVTVSS
polyreactivity (PSR sort gate): low polyreactivity

QVQLVESGGGLVQAGGSLRLSCAASGSIFSSYVMGWYRQAPGKERELVAAMSRSGGSTYYADSVKGRFTISRDNAKNTVYLQMNSLKPEDTAVYYCAADWTRGSPGMDYWGQGTQVTVSS
polyreactivity (PSR sort gate): high polyreactivity

QVQLVESGGGLVQAGGSLRLSCAASGSIFSTNALGWYRQAPGKERELVAGITRSGGRTYYADSVKGRFTISRDTAKNTVYLQMNSLKPEDTAVYYCTAVRPHRYYSWGQGSQVTVSS
polyreactivity (PSR sort gate): high polyreactivity

QVQLVESGGGLVQAGGSLRLSCAASGSIFSTNAMGWYRQAPGKERELVAGISSDDSTYADSVKGRFTISRDNAKNTVYLQMNSLKQADTAVYYCAAEDNWYNVGYYYWGQGTQVTVSS
polyreactivity (PSR sort gate): low polyreactivity

QVQLVESGGGLVQAGGSLRLSCAASGSIFSTYAMGWYRQAPGKERELVAAISQGGSSTYYADSVKGRFTISRDIAKNTVYLQMKSLKAEDTAVYYCAKFPYLKFGYDYWGQCTQVTVSS
polyreactivity (PSR sort gate): high polyreactivity

QVQLVESGGGLVQAGGSLRLSCAASGSIFSTYAMGWYRQAPGKERELVAAISVSGSSTYYADSVKGRFTISRDNAKNTVYLQMNSLKPEDTAVYYCAADVPYGASIISYDYWGQGTQVTVSS
polyreactivity (PSR sort gate): low polyreactivity

QVQLVESGGGLVQAGGSLRLSCAASGSIFSTYAMGWYRQAPGKERELVATIRRGGSTYYADSVKGRFTISRDNAKNTVYLQMNSLKPEDTAVYYCAATVSSYPYYRYYSWGQGTQVNVSS
polyreactivity (PSR sort gate): high polyreactivity

QVQLVESGGGLVQAGGSLRLSCAASGSIFSTYVMGWYRQAPGKERELVAAISRRGGSTYYADSVKGRFTISRDNAKNTVYLQMNSLKPEDTAVYYCAARGQFRYSFGDYSWGQGTQVTVSS
polyreactivity (PSR sort gate): high polyreactivity

QVQLVESGGGLVQAGGSLRLSCAASGSIFSVNDMGWYRQAPGKERELVAAISSGGSTNYADSVKGRFTISRDNAKNTVSLQMNSLKPEDTAVYYCNTVVRGWSSSAYDYWGQGTQVTVSS
polyreactivity (PSR sort gate): low polyreactivity

QVQLVESGGGLVQAGGSLRLSCAASGSIFSVNSMGWYRPAPGKERELVATIRTGDSTNYADSVKGRFTISRDNAKNTVYLQMNSLKPEDTAVYYCAAEWSSLNFDYWGHGTQVTVSS
polyreactivity (PSR sort gate): low polyreactivity

QVQLVESGGGLVQAGGSLRLSCAASGSIFSVYAMGWYRQAPGKERELVASITRSGGRTYYADSVKGRFTISRDNPKNTVYLQMNSLKPEDTAVYYCAADRLGSISGYDYWGQGTQVTVSS
polyreactivity (PSR sort gate): high polyreactivity

QVQLVESGGGLVQAGGSLRLSCAASGSIFSVYAMGWYRQAPGTERELVAGITRNGGTTYYADSVKGRFTISRDNAKHTVYLQMNSLKPEDTAVYYCAADNGFPEYGVNRVWSRYDYWGQGTQVTVSS
polyreactivity (PSR sort gate): low polyreactivity

QVQLVESGGGLVQAGGSLRLSCAASGSIFSVYVMGWYRQAPGKERELVAAISWSDSDTYYADSVKGRFTISRDNAKNTVYLQMNSLKPEDTAVYYCAAETFDYADYIANGSGEYDYWGQGTQGTVSS
polyreactivity (PSR sort gate): high polyreactivity

QVQLVESGGGLVQAGGSLRLSCAASGSIFSWNAMGWYRQAPGKERELVAAITSGGSTYYADSVKGRFTISRDNAKNTVYLQMNSLKPEDTAVYYCGWTYHYHRESWGQGTQVTVSS
polyreactivity (PSR sort gate): low polyreactivity

QVQLVESGGGLVQAGGSLRLSCAASGSIFSWNARGCYRQAPGKERELVAGITWSGGGTSYADSVKGRFTISRDNAKNTVYLQMNSLKPEDTAVYYCAKEWIFDFNYWGQGTQVTVSS
polyreactivity (PSR sort gate): low polyreactivity

QVQLVESGGGLVQAGGSLRLSCAASGSIFSWYAMGWYRQAPGKERELVAAITSDGGTNYADSVKGRFTISRDNAKNTVYLQMNRLKPEDTAVYYCAADYWYSWRRSHYAHRYGYWGQGTQVTVSS
polyreactivity (PSR sort gate): low polyreactivity

QVQLVESGGGLVQAGGSLRLSCAASGSIFSYNAMGWYRQAHGKERELVAAIRASGGSTYYADSVKGRFTISRDNAKNTVYLQMNSLKPEDTAVYYCAARGYGWGQGTQVTVSS
polyreactivity (PSR sort gate): high polyreactivity

QVQLVESGGGLVQAGGSLRLSCAASGSIFSYNAMGWYRQAPGKERELVAAIRASGGDTYYADSVKGRFTISRDNAKNTVYLQMNSLKPEDTAVYYCAARTYAHHYASHGYWGQGTQVTVSS
polyreactivity (PSR sort gate): low polyreactivity

QVQLVESGGGLVQAGGSLRLSCAASGSIFSYNAMGWYRQAPGKERELVAAISRNGGRTYYADSVKGRFTISRDNAKNTVYLQMNSLKPEDTAVYYCNNAGYRAGTGSYDYWGQGTQVTVSS
polyreactivity (PSR sort gate): high polyreactivity

QVQLVESGGGLVQAGGSLRLSCAASGSIFSYNAMGWYRQAPGKERELVAAISSGDYTYYADSVKGRFTISRDNAKNTVYLQMNSLKPEDTAVYYCAAPYVYSRGLSGDYYWGQGTQVTVSS
polyreactivity (PSR sort gate): high polyreactivity

QVQLVESGGGLVQAGGSLRLSCAASGSIFSYYAMGCYRQAPGKERQLVASISWIGTSTYYADSVKGRFTISRDNAKNTFYLQINSLKPEDTAVYYCNADWTYYGFGTRLDYWGQGTQVTVSS
polyreactivity (PSR sort gate): low polyreactivity

QVQLVESGGGLVQAGGSLRLSCAASGSIFSYYAMGGYRQAPGKARELVASISWNGTSTYYADSVKGRFTISRDNAKNTVYLQMNSLKPEDTAVYYCNVRFNYRGTYDYWGQGTQVTVSS
polyreactivity (PSR sort gate): low polyreactivity

QVQLVESGGGLVQAGGSLRLSCAASGSIFSYYAMGWDRQAPGKERELVASISWNGTSTYYADSVKGRFTISRDNAKNTVYLQMNSLKPEDTAVYYCNGRFIYRGTYDYWGQGTQVTVSS
polyreactivity (PSR sort gate): low polyreactivity

QVQLVESGGGLVQAGGSLRLSCAASGSIFSYYAMGWYRQAPGKEREFVAAITKSGGSTYYADSVKGRFTISRDNAKNTVYLQMNSLKPEDTAVYYCAVRYKLYYYRYDYWGQGTQVTVSS
polyreactivity (PSR sort gate): low polyreactivity

QVQLVESGGGLVQAGGSLRLSCAASGSIFSYYAMGWYRQAPGKERELVAAINWSGGRTYYADSVKGRFTISRDNAKNTVYLQMNSLKPEDTAVYYCNAVSNFWFIVFYGNQPKTDDYWGQGTQVTVSS
polyreactivity (PSR sort gate): high polyreactivity

QVQLVESGGGLVQAGGSLRLSCAASGSIFSYYAMGWYRQAPGKERELVAAIRWRTGNTYYADSVKGRFTISRDNAMNTVYLQMNSLKPEDTAVYYCNAVYRYNYGYREYEYWGQGTQVTVSS
polyreactivity (PSR sort gate): high polyreactivity

QVQLVESGGGLVQAGGSLRLSCAASGSIFSYYAMGWYRQAPGKERELVAAITVRGGSTYYADSVKGRFTISRDNAKNTVYLQMNSLKPEDTGVYYCAADWLDESFSYGPYYYWGQGTQVTVSS
polyreactivity (PSR sort gate): low polyreactivity

QVQLVESGGGLVQAGGSLRLSCAASGSIFSYYTMGWYRQAPGQERELVAAISRRGGRTYYADSVKGRFTISRDNAKNTVYLQMNSLKPEDTAVYYCAAEWAGWNNEMDYWGQVTQVTVSS
polyreactivity (PSR sort gate): high polyreactivity

QVQLVESGGGLVQAGGSLRLSCAASGSIFTADAMGWYRQAPGKERELVAAISRSGGRTYYADSVKGRFTISRDNAKNTDYLQMNSLKPEDTAVYYCAAAFASQYRVVKYYYWGQGTQVTVSS
polyreactivity (PSR sort gate): high polyreactivity

QVQLVESGGGLVQAGGSLRLSCAASGSIFTAYTMGWYRQAPGKERELVAAITERGGSTYYADSVKGRFTISRDNAKNTVYLQMNSLKPEDTAVYYCNAVWYFKPPPLYYIPYRQYDYWGQGTQVTVSS
polyreactivity (PSR sort gate): low polyreactivity

QVQLVESGGGLVQAGGSLRLSCAASGSIFTDNAMGRYRQAPGKERELVAAITSNGGSTYYADSVKGRFTISRDNAKNTVYLQMNSLKPEDTAVYYCAADSLYREDDYWGQGTQVTVSS
polyreactivity (PSR sort gate): low polyreactivity

QVQLVESGGGLVQAGGSLRLSCAASGSIFTEKAMGWYRQAPGKERELVATITITGSTNYADSVKGRFTISRDNAKNTVYLQLNSLKPEETAVYYCNADLYIAFSASAYDYWGQGTQVTVSS
polyreactivity (PSR sort gate): low polyreactivity

QVQLVESGGGLVQAGGSLRLSCAASGSIFTENAMGWYRQAPGKERELVATITITGSTNYADSVKGRFTISRDNAKNTVYLQMNSLKPEDTAVYYCNADLYIAFSASAYDYWGQGTQVTVSS
polyreactivity (PSR sort gate): low polyreactivity

QVQLVESGGGLVQAGGSLRLSCAASGSIFTENAMGWYRQPPGKERELVATITITGSTNYADSVKGRFTISRDNAKKTVYLQMNSLKPADTAVYYCNADLYIAFSASAYDYWGQGTQVTVSS
polyreactivity (PSR sort gate): low polyreactivity

QVQLVESGGGLVQAGGSLRLSCAASGSIFTEYAMGWYRQAPGKERELVAAISWSGATTYYADSVKGRFTISRDNAKNTVYLQMNSLKPEDTAVYYCAARWANRSYEYWGQGTQVTVSS
polyreactivity (PSR sort gate): low polyreactivity

QVQLVESGGGLVQAGGSLRLSCAASGSIFTEYAMGWYRQAPGKERELVADINSGDITYYADSVKGRFTISRDNAKNTVYLQMNSLKPEDTAVYYCATGWYYTSSTYRSSDFDYWGQGTQVTVSS
polyreactivity (PSR sort gate): low polyreactivity

QVQLVESGGGLVQAGGSLRLSCAASGSIFTFYAMGLYRQAPGKERELVAAISYRGGSTYYADSVKGRFTISRDNAKNTVYLQINSLKPEDTAVYYCAAARFPVFIQGYRMEYWGQGTQVTVSS
polyreactivity (PSR sort gate): low polyreactivity

QVQLVESGGGLVQAGGSLRLSCAASGSIFTFYAMGWYRQAPGKERELVAAISYRGGSTYYADSVKGRFTISRDNAKNTVYLQMNSLKPEDTAVYYCAAARFPVFIQGYRMEYWGQGTQVTVSS
polyreactivity (PSR sort gate): low polyreactivity

QVQLVESGGGLVQAGGSLRLSCAASGSIFTFYAMGWYRQAPGKERELVATITISTGSTYYADSVKGRFTISRDNAKNTVYFQMNSLKPEDTAVYYCNAYISRRGKRGYNYWGQGTQVTVSS
polyreactivity (PSR sort gate): high polyreactivity

QVQLVESGGGLVQAGGSLRLSCAASGSIFTGNAMGWYREAPGKERELVAAITNGGITNYADSVKRRFTISRDNAMNTVYLQMNSLKPEDTAVYYCAADYVDFYSFRRFDYWGQGTQVTVSS
polyreactivity (PSR sort gate): low polyreactivity
